Test results as given in patent US20100260765A1 (AstraZeneca / MedImmune, published 2010).

B1: 30F6 (antibody, V domains shown)
VH: QVQLVESGGGVVQPGRSLRLSCAASGFTFSTYGMHWVRQAPGKGLEWVAVIWYDGSNKYYADSVKGRFTISRDNSKNTLYLQMNSLRAEDTAVYYCACSYWNDDYYYGMDVWGQGTTVTVSS
VL: DIQMTQSPSSLSASVGDRVIITCRASQNISSYLIWYQQKPGKAPNLLIHTTSSLQRGVPSRFSGSGSGTDFTLTISSLQPEDFATYYCQQSYSAPLTFGGGTKVEIK
B2: 22B8 (antibody, V domains shown)
VH: QLQLQESGPGLVKPSETLSLTCTVSGGSISSRYYYWGWVRQPPGKGLEWIGTIYYSGHTYYNPSLKTRVTISVDTSKNQFSLKLISVTAADTAVYYCATQQLVLYYFDFWGQGTLVTVSS
VL: EIVLTQSPGTLSLSPGERAALSCRASQSISSSYLAWYQQRPGQAPRLLIYGASSRATGIPDRFNGSGSGTDFTLTISRLEPEDFAVYYCQQFGSSITFGQGTRLEIK
B3: 24B3 (antibody, V domains shown)
VH: EVQLVESGGGLVKPGGSLRLSCAASGFTFSTYSMNWVRQAPGKGLEWVSFISGRSSYIYYADSVKGRFTISRDNAKNSLYLQMNSLRAEDTAVYYCSKDDWFEELWGQGTLVTVSS
VL: DIQMTQSPSSLSASVGDRVTITCRASQGIRSDLGWYQQKPGKAPKRLIYATSSLQSGVPSRFSGSGSGTEFTLTISSLQPEDFATYYCLQHNRYPWTFGQGTKVEIK
B4: 29A3 (antibody, V domains shown)
VH: QVQLQESGPGLVKPSETLSLTCTVSGGSISSYFWSWIRQPAGKGLEWIGRIYFSGRTNYNPSLKSRVTMSVETSKNQFSLKLNSVTAADTAVYYCARDGGWNYDVAFDYWGQGTLVTVSS
VL: QAVLTQPSSLSASPGASASLTCTLRSGINVGTYRIYWYQQKPGSPPQYLLRYKSDSDQLQGSGVPSRFSGSKDASANAGILLISGLQSEDEADYYCMVWHSNTWVFGGGTKLTVL
B5: 32B2 (antibody, V domains shown)
VH: EVQLLESGGGLVQPGGSLRLSCAASGFTFSNYAMSWVRQAPGKGLDWVSAISGRGGSTYYADSVKGRFTISRDNSKNTLFLLMNSLRAEDTAVYYCAKASGDDWGQGTLVTVSS
VL: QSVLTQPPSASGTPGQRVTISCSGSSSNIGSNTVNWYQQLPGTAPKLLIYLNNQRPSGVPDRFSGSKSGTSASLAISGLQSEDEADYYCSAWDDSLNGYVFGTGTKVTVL
B6: 30H10 (antibody, V domains shown)
VH: EVQLLESGGGLVQPGGSLRLSCAASGFTFSNYAMSWVRQAPGKGLEWVSAISGSGGITYYADSVKGRFTISRDNSKNTLFLQMNSLRAEDTAVYYCAKASGDNWGQGTLVSVSS
VL: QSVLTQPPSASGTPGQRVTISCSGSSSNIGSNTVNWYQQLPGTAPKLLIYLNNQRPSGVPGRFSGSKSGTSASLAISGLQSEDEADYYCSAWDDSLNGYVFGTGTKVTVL
B7: 21H6 (antibody, V domains shown)
VH: QVQLVESGGGLVKPGGSLRLSCAASGFTFSDYYMSWIRQAPGKGLEWVSYISNSGITIYYADSVKGRFTISRDNAKNSLYLQMNSLRAGDTAVYYCAREEWYSSRWYRNFDYWGQGTLVTVSS
VL: DIQMTQFSSSLSASVGDRVTITCRASQSISRYLNWYQQKPGKAPKLLIYAASSLQSGVPSRFNGSGSGTDFTLTISSLQPEDFATYYCQQSYSAPLTFGGGTKVEIK
B8: 29H3 (antibody, V domains shown)
VH: QVQLVQSGAEVKKPGASVKVSCKASGYTFTSYDINWVRQATGQGLEWMGWMNPNSGKTGYAQKFQGRVTMTRNTSINTAYMELSSLRSEDTAVYYCARGGYSNLGWFDPWGQGTLVTVSS
VL: DIQMTQSPSSVSASVGDRVTITCRASQGISSWLVWYHQKPGKAPKLLIYGASSLQSGVPSRFSGSGSGTDFTLTISSLQPEDFATYYCQQANNFPFTFGPGTKVDIK

Legend:
Assay in all cases: cell-based or functional assay
KDR [1] = biological target: T1, KDR (human, UniProt P35968 20-1356)
T1 sequence (P35968 20-1356): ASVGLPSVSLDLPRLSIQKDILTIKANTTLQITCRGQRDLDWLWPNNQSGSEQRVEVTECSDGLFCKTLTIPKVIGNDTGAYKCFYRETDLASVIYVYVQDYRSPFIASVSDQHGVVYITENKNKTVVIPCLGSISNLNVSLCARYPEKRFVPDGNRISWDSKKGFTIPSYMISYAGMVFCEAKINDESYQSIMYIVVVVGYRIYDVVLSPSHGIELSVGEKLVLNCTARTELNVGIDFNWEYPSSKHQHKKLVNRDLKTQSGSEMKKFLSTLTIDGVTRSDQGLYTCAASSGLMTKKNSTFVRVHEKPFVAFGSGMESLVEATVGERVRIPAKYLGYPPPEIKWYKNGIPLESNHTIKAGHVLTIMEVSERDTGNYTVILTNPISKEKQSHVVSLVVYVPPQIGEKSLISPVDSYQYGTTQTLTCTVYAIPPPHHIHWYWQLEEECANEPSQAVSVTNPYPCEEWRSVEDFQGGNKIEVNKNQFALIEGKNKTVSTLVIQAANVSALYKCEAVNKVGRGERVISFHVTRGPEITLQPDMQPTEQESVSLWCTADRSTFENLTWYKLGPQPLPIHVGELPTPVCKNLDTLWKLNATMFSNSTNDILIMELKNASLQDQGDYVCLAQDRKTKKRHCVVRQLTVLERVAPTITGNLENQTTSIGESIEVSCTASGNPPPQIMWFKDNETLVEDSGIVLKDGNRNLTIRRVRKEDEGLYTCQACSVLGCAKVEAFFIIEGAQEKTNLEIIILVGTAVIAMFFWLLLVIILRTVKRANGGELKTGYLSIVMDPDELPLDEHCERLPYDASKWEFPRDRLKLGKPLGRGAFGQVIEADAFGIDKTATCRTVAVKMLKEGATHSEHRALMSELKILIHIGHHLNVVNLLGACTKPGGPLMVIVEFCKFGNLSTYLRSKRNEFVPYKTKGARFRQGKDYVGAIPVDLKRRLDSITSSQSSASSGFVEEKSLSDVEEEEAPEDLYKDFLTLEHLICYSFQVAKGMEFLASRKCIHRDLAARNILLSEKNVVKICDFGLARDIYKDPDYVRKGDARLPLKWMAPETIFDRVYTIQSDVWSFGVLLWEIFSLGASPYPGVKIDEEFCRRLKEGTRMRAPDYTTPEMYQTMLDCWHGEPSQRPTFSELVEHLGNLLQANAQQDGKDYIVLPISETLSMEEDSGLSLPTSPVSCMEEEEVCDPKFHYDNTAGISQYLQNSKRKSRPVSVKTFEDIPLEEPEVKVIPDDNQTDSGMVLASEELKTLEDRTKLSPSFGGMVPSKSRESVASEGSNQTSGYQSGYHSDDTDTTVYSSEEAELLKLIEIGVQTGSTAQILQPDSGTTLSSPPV

KDR [2] = biological target: T1, KDR; remark: listed apart in the source
KDR [3] = biological target: T1, KDR; remark: listed apart in the source
KDR [4] = biological target: T1, KDR; remark: listed apart in the source
KDR [5] = biological target: T1, KDR; remark: listed apart in the source

| Binder | % Inhibition of VEGF165-mediated 6-keto Prostaglandin F1α release at 133 nM Antibody Concentration, Average (KDR [1]) [%] | % Inhibition of VEGF165-mediated 6-keto Prostaglandin F1α release at 133 nM Antibody Concentration, N = 1 (KDR [1]) [%] | % Inhibition of VEGF165-mediated 6-keto Prostaglandin F1α release at 133 nM Antibody Concentration, N = 2 (KDR [1]) [%] | Activity at 133 nM (% Inhibition), 24-hour Pre-incubation at 37° C., Average (KDR [2]) [%] | Activity at 133 nM (% Inhibition), 24-hour Pre-incubation at 37° C., N = 1 (KDR [2]) [%] | Activity at 133 nM (% Inhibition), 24-hour Pre-incubation at 37° C., N = 2 (KDR [2]) [%] | Activity at 133 nM Antibody Concentration (% Survival Inhibition), Average (KDR [3]) [%] | Activity at 133 nM Antibody Concentration (% Survival Inhibition), N = 1 (KDR [3]) [%] | Activity at 133 nM Antibody Concentration (% Survival Inhibition), N = 2 (KDR [3]) [%] | Activity at 133 nM (% Inhibition), 1-hour Pre-incubation at 4° C., Average (KDR [4]) [%] | Activity at 133 nM (% Inhibition), 1-hour Pre-incubation at 4° C., N = 1 (KDR [4]) [%] | Activity at 133 nM (% Inhibition), 1-hour Pre-incubation at 4° C., N = 2 (KDR [4]) [%] | % of Max VEGF KDR pTyr Activity (at 133 nM antibody concentration), Average (KDR [5]) [%] | % of Max VEGF KDR pTyr Activity (at 133 nM antibody concentration), N = 1 (KDR [5]) [%] | % of Max VEGF KDR pTyr Activity (at 133 nM antibody concentration), N = 2 (KDR [5]) [%] |
| --- | --- | --- | --- | --- | --- | --- | --- | --- | --- | --- | --- | --- | --- | --- | --- |
| B1 | 79 | 68 | 89 | 55 | 60 | 51 | 82 | 91 | 74 | 84 | 84 | 85 | 13 | 14 | 13 |
| B2 | 72 | 67 | 76 | 99 | 82 | 115 | 88 | 88 | 87 | 76 | 75 | 76 | 7 | 9 | 5 |
| B3 | 68 | 66 | 70 | 72 | 76 | 69 | 65 | 65 | 64 | 80 | 80 | 80 | 14 | 12 | 15 |
| B4 | 13 | 11 | 16 | 11 | 7 | 15 | -111 | -65 | -156 | 23 | 25 | 20 | 16 | 15 | 17 |
| B5 | 6 | 3 | 9 | 49 | 38 | 61 | -21 | -13 | -29 | 29 | 25 | 33 | 11 | 12 | 10 |
| B6 | 10 | 10 | – | 62 | 48 | 77 | -115 | -84 | -147 | 26 | 31 | 21 | 12 | 12 | 13 |
| B7 | 100 | 104 | 96 | 27 | 35 | 19 | 91 | 105 | 77 | 74 | 74 | 75 | 11 | 10 | 12 |
| B8 | 18 | 14 | 22 | 19 | 1 | 36 | -70 | -5 | -136 | 50 | 45 | 55 | 16 | 20 | 11 |
